Reference: patent US6475717

Tests used:
human IL-7 (human) = target: T1, human IL-7 (human) (UniProt P13232); experiment: control in IL-4R/Fc sandwich ELISA; hu IL-7 at 50 ng/ml
T1 sequence (looked up): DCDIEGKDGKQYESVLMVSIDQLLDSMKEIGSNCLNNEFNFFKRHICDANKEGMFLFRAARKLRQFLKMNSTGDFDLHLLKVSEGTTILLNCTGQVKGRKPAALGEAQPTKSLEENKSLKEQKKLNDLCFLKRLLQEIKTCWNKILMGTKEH

[1] = target: T2, murine recombinant IL-4 (Immunex, Lot 2871-023) (murine) (UniProt P07750); experiment: control in IL-4R/Fc sandwich ELISA; mu IL-4 at 50 ng/ml
T2 sequence (looked up): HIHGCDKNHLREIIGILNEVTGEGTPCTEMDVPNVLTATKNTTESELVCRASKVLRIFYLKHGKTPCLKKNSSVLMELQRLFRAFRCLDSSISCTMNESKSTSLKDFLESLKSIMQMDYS

human IL-2 (human) = human IL-2 (human) (UniProt P60568); experiment: control in IL-4R/Fc sandwich ELISA; hu IL-2 at 5000 IU/ml
Chain of UniProt P60568 (P60568 21-153 limits assumed): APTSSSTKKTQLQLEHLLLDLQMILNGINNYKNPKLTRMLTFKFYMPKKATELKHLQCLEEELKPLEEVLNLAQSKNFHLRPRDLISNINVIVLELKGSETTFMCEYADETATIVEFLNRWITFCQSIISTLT

human IL-6 (human) = human IL-6 (human) (UniProt P05231); experiment: control in IL-4R/Fc sandwich ELISA; hu IL-6 at 5000 IU/ml
Chain of UniProt P05231 (P05231 30-212 limits assumed): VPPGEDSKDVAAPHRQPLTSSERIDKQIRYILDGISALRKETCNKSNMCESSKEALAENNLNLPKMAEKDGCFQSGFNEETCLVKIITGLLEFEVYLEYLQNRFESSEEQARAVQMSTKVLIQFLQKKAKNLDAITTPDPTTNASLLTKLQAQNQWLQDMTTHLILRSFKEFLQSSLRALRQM

human IL-1-alpha (human) = target: T3, human IL-1-alpha (human) (UniProt P01583); experiment: control in IL-4R/Fc sandwich ELISA; hu IL-1 α at 7.5 ng/ml
T3 sequence (looked up): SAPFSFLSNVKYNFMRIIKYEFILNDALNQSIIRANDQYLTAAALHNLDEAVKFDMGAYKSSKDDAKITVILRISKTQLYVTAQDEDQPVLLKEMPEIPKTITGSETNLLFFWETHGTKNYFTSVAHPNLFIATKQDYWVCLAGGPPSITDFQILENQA

human IL-1-beta (human) = human IL-1-beta (human) (UniProt P01584); experiment: control in IL-4R/Fc sandwich ELISA; hu IL-1 β at 16.6 ng/ml
Chain of UniProt P01584 (P01584 117-269 limits assumed): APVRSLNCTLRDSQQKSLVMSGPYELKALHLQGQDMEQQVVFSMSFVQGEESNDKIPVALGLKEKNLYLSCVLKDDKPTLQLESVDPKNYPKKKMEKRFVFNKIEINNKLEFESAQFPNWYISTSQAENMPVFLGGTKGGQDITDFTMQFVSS

human TNF-alpha (human) [2] = target: human TNF-alpha (human) (UniProt P01375); experiment: control in IL-4R/Fc sandwich ELISA; hu-TNF α (Immunex) at 50 ng/ml
Chain of UniProt P01375 (P01375 77-233 limits assumed): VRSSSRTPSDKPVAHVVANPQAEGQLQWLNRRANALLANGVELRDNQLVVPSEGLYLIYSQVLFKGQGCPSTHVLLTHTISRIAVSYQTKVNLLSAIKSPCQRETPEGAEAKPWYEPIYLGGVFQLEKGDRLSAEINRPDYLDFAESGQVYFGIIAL

human TNF-alpha (human) [3] = target: human TNF-alpha (human) (UniProt P01375); experiment: control in IL-4R/Fc sandwich ELISA; hu-TNF α as printed (Genzyme B1089) at 50 ng/ml
[4] = target: human recombinant IL-4 (Immunex, Lot 1898-022) (human) (UniProt P05112); experiment: control in mu IL-4R/Fc sandwich ELISA; hu IL-4 at 50 ng/ml
Chain of UniProt P05112 (P05112 25-153 limits assumed): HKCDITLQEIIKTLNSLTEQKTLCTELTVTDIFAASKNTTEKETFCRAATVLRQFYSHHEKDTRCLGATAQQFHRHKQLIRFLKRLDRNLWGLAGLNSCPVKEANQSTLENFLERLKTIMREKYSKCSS

[5] = target: T4, murine IL-1-beta (murine) (UniProt P10749); experiment: control in mu IL-4R/Fc sandwich ELISA; mu IL-1 β at 10 ng/ml
T4 sequence (looked up): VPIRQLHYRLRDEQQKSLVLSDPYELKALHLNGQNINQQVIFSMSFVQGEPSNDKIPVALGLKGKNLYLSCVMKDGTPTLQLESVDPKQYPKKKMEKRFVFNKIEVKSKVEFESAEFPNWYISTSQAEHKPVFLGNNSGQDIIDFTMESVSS

[6] = target: murine TNF-alpha (murine) (UniProt P06804); experiment: control in mu IL-4R/Fc sandwich ELISA; mu-TNF α at 100 ng/ml
Chain of UniProt P06804 (P06804 80-235 limits assumed): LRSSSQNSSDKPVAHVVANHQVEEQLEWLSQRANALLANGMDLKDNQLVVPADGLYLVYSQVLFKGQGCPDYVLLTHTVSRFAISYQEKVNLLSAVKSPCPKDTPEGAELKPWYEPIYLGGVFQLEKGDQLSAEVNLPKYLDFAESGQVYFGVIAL

[7] = target: T5, murine IL-1-alpha (murine) (UniProt P01582); experiment: control in mu IL-4R/Fc sandwich ELISA; mu IL-1 α at 100 IU/ml
T5 sequence (looked up): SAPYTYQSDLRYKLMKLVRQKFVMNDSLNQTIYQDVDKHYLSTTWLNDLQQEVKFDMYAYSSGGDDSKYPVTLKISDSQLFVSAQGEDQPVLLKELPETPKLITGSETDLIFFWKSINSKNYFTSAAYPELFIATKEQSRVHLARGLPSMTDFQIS

Measured: concentration determined from the extinction

human IL-4 receptor/immunoglobulin Fc fusion protein (from UniProt P24394 26-232)
< 31 pg/mL: human IL-7 (human) | [1] | human IL-2 (human) | human IL-6 (human) | human IL-1-alpha (human) | human IL-1-beta (human) | human TNF-alpha (human) [2] | human TNF-alpha (human) [3]

B1: murine IL-4 receptor/immunoglobulin Fc fusion protein (Fc fusion, UniProt P16382 26-233, looked up, not shown: small tags and cut ends)
chain: IKVLGEPTCFSDYIRTSTCEWFLDSAVDCSSQLCLHYRLMFFEFSENLTCIPRNSASTVCVCHMEMNRPVQSDRYQMELWAEHRQLWQGSFSPSGNVKPLAPDNLTLHTNVSDEWLLTWNNLYPSNNLLYKDLISMVNISREDNPAEFIVYNVTYKEPRLSFPINILMSGVYYTARVRVRSQILTGTWSEWSPSITWYNHFQLPLIQR
< 31 pg/mL: [4] | [5] | [6] | [7]
